Experiments:
[1] = target: T1, wild type gp120 Env protein of HIV-1 JR-FL (HIV-1 isolate JR-FL, UniProt Q75760, strain); experiment: ELISA; mAb64 against gp120, gp120-Core or their D368R mutant protein, as previously described; conditions: both partners purified
T1 construct: gp120 subunit of Env (cut product of gp160) of HIV-1 isolate JR-FL; The ELISA methods name gp120 and gp120-Core proteins; also called JR-FL gp120

[2] = target: T2, wild type gp120 Env protein of HIV-1 YU2 (HIV-1 isolate YU2, UniProt P35961); experiment: as above; conditions: both partners purified
T2 construct: gp120 subunit of Env (cut product of gp160) of HIV-1 isolate YU2; The ELISA methods name gp120 and gp120-Core proteins; also called YU2 gp120

[3] = target: T3, gp120 derived from HIV-1 SF162, biotinylated (HIV-1 isolate SF162, UniProt P19550, strain, biotin (Lynx biotinylation kit)); experiment: flow cytometry on cells; HmAb64 blocking the staining of primary human CD4+ T cells by biotinylated gp120 (antibody and gp120 both purified proteins in solution); conditions: both partners purified
T3 construct: gp120 subunit of Env (cut product of gp160) of HIV-1 isolate SF162; also called SF162 gp120

[4] = target: T4, HIV-1 SF162 Env on infected CD4+ T cells (HIV-1 isolate SF162, UniProt P19550, strain); experiment: flow cytometry on cells; primary human CD4+ T cells infected with HIV SF162 for 3 days, stained with HmAb64 (2 ug), goat anti-human-PE; uninfected cells as control; conditions: one partner purified
T4 construct: Env as the target follows from the antibody's specificity; also called HIV-1 on cell surface; SF162 infected CD4+ T cells; source: primary human CD4+ T cells infected with HIV SF162, on cells

A244 gp120 = target: T5, A244 gp120 (HIV-1 isolate A244); experiment: SPR; Biacore 3000, CM4 or CM5 chips; gp120 or BG505-SOSIP amine-coupled to about 750 RU; HBS pH 7.4, 3 mM EDTA, 0.005% Tween-20, 0.05% carboxymethyl-dextran; 25 ul/min, 25 °C; conditions: both partners purified
T5 construct: gp120 subunit of Env (cut product of gp160) of HIV-1 isolate A244; also called gp120 protein from A244 viral isolate

Measured: binding result

B1: HmAb64 (antibody, V domains shown)
VH: QVQLVQSGAEVKKPGASVKVSCKASGYTFTSYDITWVRQAPGQGLEWMGWISAYNGDTNYAQRLQGRVTMTTDTSTSTAYMELRSLRSDDTAVYYCARAKHTVLVTAMRWFDPWGQGTLVTVSS
VL: DIQMTQSPSSLSASVGDRVTITCRASQSISNYLNWYQQKPGKAPKLLISATSSLQSGVPSRFSGSGSGTDFTLTISSLQPDDFATYYCQQSYSTPWTFGQGTKLEIK
notes: germline IGHV1-18*01, CDR H3 of 15 aa (Kabat); full-length human IgG heavy chain cloned from clone #64; germline IGKV1-39*01, CDR L3 of 9 aa (Kabat); kappa chain cloned from clone #64; Human IgG, kappa; also called clone #64; human IgG (HmAb64)
binds: all assays above

From PMC10602183 (Research Square, 2023)
